# Experimental data as given in patent publication US20180171024A1.
# Experiments:
# [1] = biological target: HLA-A2/TyrD-S9 on T2 cells (human); test: flow cytometry, T2 cells loaded with TyrD S9 [..], 10 µg/ml
# [2] = biological target: HLA-A2/TyrD-S7 on T2 cells (human); test: flow cytometry, T2 cells loaded with TyrD S7 [..], 10 µg/ml
# [3] = biological target: HLA-A2/TyrD-S15 on T2 cells (human); test: flow cytometry, T2 cells loaded with TyrD S15 [..], 10 µg/ml
# [4] = biological target: HLA-A2 on cells (tumor cell lines, normal primary cells, PBMCs) (human); test: flow cytometry, H1703 cells, 10 µg/ml
# [5] = biological target: HLA-A2/GP9 on T2 cells (human); test: flow cytometry, T2 cells loaded with GP9 peptide
# [6] = biological target: HLA-A2 on cells (tumor cell lines, normal primary cells, PBMCs) (human); test: flow cytometry, fibroblasts Fib, 10 µg/ml
# [7] = biological target: HLA-A2 on cells (tumor cell lines, normal primary cells, PBMCs) (human); test: flow cytometry, A375 melanoma cells, 10 µg/ml
# [8] = biological target: HLA-A2 on cells (tumor cell lines, normal primary cells, PBMCs) (human); test: flow cytometry, endothelial cells HUE-1, 10 µg/ml
# [9] = biological target: HLA-A2/WT1 126-134 complex on T2 cells (human); test: flow cytometry, T2 cells loaded with WT1 [..], 10 µg/ml
# [10] = biological target: HLA-A2/WT1 126-134 complex on T2 cells (human); test: flow cytometry, T2 cells loaded with WT1 1x10e-4M in DMSO
# [11] = biological target: HLA-A2 on cells (tumor cell lines, normal primary cells, PBMCs) (human); test: flow cytometry, Fib cells
# [12] = biological target: HLA-A2/TyrD-S14 on T2 cells (human); test: flow cytometry, T2 cells loaded with TyrD S14 [..], 10 µg/ml
# [13] = biological target: HLA-A2 on cells (tumor cell lines, normal primary cells, PBMCs) (human); test: flow cytometry, Malme-3M melanoma cells, 10 µg/ml
# [14] = biological target: HLA-A2/SSX-2 on T2 cells (human); test: flow cytometry, T2 cells loaded with SSX2 [..], 10 µg/ml
# [15] = biological target: HLA-A2/WT1-S5 on T2 cells (human); test: flow cytometry, peptide-loaded T2 cells (10^-4-10^-5 M), PE anti-mouse
# [16] = biological target: HLA-A2/WT1-S3 on T2 cells (human); test: as above
# [17] = biological target: HLA-A2/WT1-S11 on T2 cells (human); test: as above
# [18] = biological target: HLA-A2/WT1-S6 on T2 cells (human); test: as above
# [19] = biological target: HLA-A2/WT1-S10 on T2 cells (human); test: as above
# [20] = biological target: HLA-A2/WT1 126-134 complex on T2 cells (human); test: as above
# [21] = biological target: HLA-A2 on cells (tumor cell lines, normal primary cells, PBMCs) (human); test: flow cytometry, SET-2 cells, 10 µg/ml
# [22] = biological target: HLA-A2 on cells (tumor cell lines, normal primary cells, PBMCs) (human); test: flow cytometry, WM-266-4 melanoma cells
# [23] = biological target: HLA-A2/Tyrosinase369-377 complex on cells (human); test: flow cytometry, T2 cells loaded with TyrD [..], 10 µg/ml
# [24] = biological target: HLA-A2/MAGE-A4 230-239 complex on cells (human); test: flow cytometry, T2 cells loaded with MAGE-A4 [..], 10 µg/ml
# [25] = biological target: HLA-A2/TyrD-S20 on T2 cells (human); test: flow cytometry, peptide-loaded T2 cells (10^-5 M), PE anti-mouse IgG
# [26] = biological target: HLA-A2/TyrD-S22 on T2 cells (human); test: as above
# [27] = biological target: HLA-A2/TyrD-S21 on T2 cells (human); test: as above
# [28] = biological target: HLA-A2/TyrD-S23 on T2 cells (human); test: as above
# [29] = biological target: HLA-A2 on cells (tumor cell lines, normal primary cells, PBMCs) (human); test: flow cytometry, renal epithelial cells #4100-2, 10 µg/ml
# [30] = biological target: HLA-A2/TyrD-S22 on T2 cells (human); test: flow cytometry, T2 cells loaded with TyrD-S22 [..], 10 µg/ml
# [31] = biological target: HLA-A2 on unloaded T2 cells (human); test: flow cytometry, T2 cells
# [32] = biological target: HLA-A2/TyrD-S5 on T2 cells (human); test: flow cytometry, T2 cells loaded with TyrD S5 [..], 10 µg/ml
# [33] = biological target: HLA-A2 on cells (tumor cell lines, normal primary cells, PBMCs) (human); test: flow cytometry, CCRF-SB cells, 10 µg/ml
# [34] = biological target: HLA-A2/P68 on T2 cells (human); test: flow cytometry, T2 cells loaded with P68 [..], 10 µg/ml
# [35] = biological target: HLA-A2 on cells (tumor cell lines, normal primary cells, PBMCs) (human); test: flow cytometry, H2228 cells, 10 µg/ml
# [36] = biological target: HLA-A2 on cells (tumor cell lines, normal primary cells, PBMCs) (human); test: flow cytometry, cardiac myocytes #6200-2, 10 µg/ml
# [37] = biological target: HLA-A2/MART1(26) on T2 cells (human); test: flow cytometry, T2 cells loaded with MART1 peptide
# [38] = biological target: HLA-A2 on HLA-A2+ cells that do not express WT1 (tumor cell lines, normal primary cells); test: flow cytometry on SKMEL-5 melanoma cells (WT1 mRNA -)
# [39] = biological target: HLA-A2 on cells (tumor cell lines, normal primary cells, PBMCs) (human); test: flow cytometry, SK-Mel-5 melanoma cells, 10 µg/ml
substance,measurement,setting,value
BB7.2 (antibody),MFI relative to background,[1],768
same,MFI relative to background,[2],666
same,MFI relative to background,[3],642
same,MFI,[4],351
same,MFI,[5],2470
same,MFI,[6],481
same,MFI,[7],196
same,MFI,[8],133
same,MFI relative to background,[9],1420
same,MFI,[10],722
same,GeoMean,[11],613
same,MFI relative to background,[12],565
same,MFI,[13],540
same,MFI relative to background,[14],1280
same,MFI,[15],1080
same,MFI,[16],1410
same,MFI,[17],1670
same,MFI,[18],1670
same,MFI,[19],1350
same,MFI,[20],2260
same,MFI,[21],274
same,MFI,[22],64
same,MFI relative to background,[23],561
same,MFI relative to background,[24],965
same,MFI relative to background,[25],445
same,MFI relative to background,[26],464
same,MFI relative to background,[27],654
same,MFI relative to background,[28],443
same,MFI,[29],1620
same,MFI relative to background,[30],464
same,GeoMean,[31],1380
same,MFI relative to background,[32],546
same,MFI,[33],902
same,MFI relative to background,[34],1220
same,MFI,[35],210
same,MFI,[36],733
same,MFI,[37],2500
same,MFI,[38],170
same,MFI,[39],118
